Our source for the Km and kcat values is publication PMC6221367, “A dual regulatory circuit consisting of S-adenosylmethionine decarboxylase protein and its reaction product controls expression of the paralogous activator prozyme in Trypanosoma brucei” (PLoS Pathogens, 2018).

Substrate in data set [1]: CSCC[C@H](N)C(=O)O
The data set is described as follows: coupled spectroscopic assay of pyrophosphate release (A340). Type of data set: biochemical, Trypanosoma brucei. The conditions noted are these: 150 nM enzyme, co-substrate ATP, 5 mM MgSO4 and 100 mM KCl in 50 mM HEPES assay buffer, pH 8.0, 37 °C, parenthesis = 95% CI. The source says:
(§1) coupled spectroscopic assay of pyrophosphate release (A340) on TbAdoMetSyn

Substrate in data set [2]: Nc1ncnc2c1ncn2[C@@H]1O[C@H](COP(=O)(O)OP(=O)(O)OP(=O)(O)O)[C@@H](O)[C@H]1O
Described as above. The class given is biochemical, Trypanosoma brucei. The conditions noted are these: 150 nM enzyme, co-substrate methionine, 5 mM MgSO4 and 100 mM KCl in 50 mM HEPES assay buffer, pH 8.0, 37 °C, parenthesis = 95% CI.
From the text: as §1

B1: TbAdoMetSyn (Trypanosoma brucei brucei TREU927) (protein)
chain: MSVRQIFFTSEHVSEGHPDKLCDQVSDAVLDACLEQDPLSKVACETCSKTGMVLVFGEITTKAVIDYQKVVRDTVKEIGFDNTEKGLDYRSLNLLVAVEQQSPDIYQGLGDFGGENLGAGDQGMMFGYATNETETLMPLSYELARGLAMTYSELRRNGGLPWARPDAKTQVTVQYEYDTRGGKQLLTPKRVAVILVSAQLDDGVSNETIREDLVKKVISTTIPAKFLDENTKYHLNPSGRFVIGGPHGDAGLTGRKIIVDTYGGWGAHGGGAFSGKDPSKVDRSAAYAARWIAKSLVAAGLADRCLVQLSYAIGVAEPLNIHVDTYGTGKRDDEYILGIVQKNFRLRPYDIIKELDLRRPIYRQTACFGHFGRVDTNGKGGFTWEVPKTLEGLSDVQ
notes: E. coli BL21(DE3); His6-tag removed by TEV protease
Usually kcat stands for the number of substrate molecules converted per active site and unit of time at saturation. With B1, in data set [1], the Km is 0.031 (0.025–0.039) mM and the kcat is 0.19 s⁻¹. Besides, in data set [2], the Km was 0.31 (0.24–0.40) mM and the kcat was found to be 0.21 s⁻¹.
